From US20190275133A1

Molecular target: IL-2Rαβ (UniProt P01589)
Assay: in vitro binding affinity against IL-2 as a standard (Example 2: SPR, Biacore T-100, receptor-Fc captured, EC50 of RU against concentration)

Chain of UniProt P01589 (P01589 22-240 limits assumed): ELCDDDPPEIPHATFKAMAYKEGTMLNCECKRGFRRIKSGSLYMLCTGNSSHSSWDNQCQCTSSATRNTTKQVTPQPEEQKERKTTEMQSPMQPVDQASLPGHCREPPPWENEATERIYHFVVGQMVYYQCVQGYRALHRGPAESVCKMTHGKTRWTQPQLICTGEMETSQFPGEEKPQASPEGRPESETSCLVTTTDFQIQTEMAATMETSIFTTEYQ

- fold decrease in affinity relative to IL-2: 60 fold
Substance: RSLAIL-2 (multiPEGylated recombinant human IL-2 with the aldesleukin sequence; composition of primarily 4-mers, 5-mers and 6-mers of releasably attached mPEG2-C2-fmoc-20kD) (from UniProt P60568 22-153) (ligand)
